These results are taken from publication PMC12485133, “An active allosteric mechanism in ASAP1-mediated Arf1 GTP hydrolysis redefines PH domain function” (Nature Communications, 2025).

Test [1] has as its target T1, N-myristoylated human Arf1 bound to GTPγS, anchored on nanodiscs (myrArf1·GTPγS) (human, UniProt P84077 1-181, N-terminal myristoyl). As to the kind of experiment: cell-based or functional assay.
Test [2] concerns the target T1, N-myristoylated human Arf1 bound to …. As to the kind of experiment: not stated; binding of PH variants and Arf variants compared with wild type (Fig. SI8 and Table SI1); the method is not given. Particulars: both partners purified.
Test [3] addresses T2, myrArf1 Glu54Ala (human, UniProt P84077 1-181, Glu54Ala, N-terminal myristoyl). As to the kind of experiment: cell-based or functional assay.
Test [4] has as its target T2, myrArf1 Glu54Ala. As to the kind of experiment: not stated; binding of PH variants and Arf variants compared with wild type (Fig. SI8 and Table SI1); the method is not given. Particulars: both partners purified.
For test [5], the target named is T3, MTSL-tagged myrArf1 K38C (Cys159 mutated to Ala), GTPγS, on nanodiscs (human, UniProt P84077 1-181, Cys159 mutated to Ala | K38C, N-terminal myristoyl; MTSL nitroxide spin label on Cys38 via a disulfide bond).
T3 construct: human Arf1, Uniprot P84077, mono-cysteine variant; source: E. coli BL21 Star (DE3), co-expressed with yeast NMT, purified; spin-labelled on nanodiscs
As to the kind of experiment: intermolecular PRE NMR; 60 μM protiated MTSL-labelled myrArf1 variants on nanodiscs, 50 μM methyl-labelled ASAP1 PH, 25 °C; paramagnetic against ascorbate-reduced sample. To be noted: both partners purified.

In test [6] the target is T4, MTSL-tagged myrArf1 with Lys73 replaced by Cys (Cys159 mutated to Ala), GTPγS, on nanodiscs (human, UniProt P84077 1-181, Cys159 mutated to Ala | Lys73 replaced with Cys, N-terminal myristoyl; MTSL nitroxide spin label on Cys73 via a disulfide bond).
T4 construct: human Arf1, Uniprot P84077, mono-cysteine variant; also called spin-labeled myrArf1 variant (Lys73 to Cys); source: E. coli BL21 Star (DE3), co-expressed with yeast NMT, purified; spin-labelled on nanodiscs
The description is as above. Particulars: both partners purified.

Test [7] addresses T5, ASAP1 ZA domain (Arf GAP domain and ankyrin repeats), residues 447-724 of ASAP1 (UniProt Q9QWY8 447-724).
T5 construct: Mouse is stated only for the PH domain constructs; the same residue numbers are used; Isotopically labelled in the PRE experiment; also called ^ΔPHZA; isolated ZA domain
T5 sequence (looked up): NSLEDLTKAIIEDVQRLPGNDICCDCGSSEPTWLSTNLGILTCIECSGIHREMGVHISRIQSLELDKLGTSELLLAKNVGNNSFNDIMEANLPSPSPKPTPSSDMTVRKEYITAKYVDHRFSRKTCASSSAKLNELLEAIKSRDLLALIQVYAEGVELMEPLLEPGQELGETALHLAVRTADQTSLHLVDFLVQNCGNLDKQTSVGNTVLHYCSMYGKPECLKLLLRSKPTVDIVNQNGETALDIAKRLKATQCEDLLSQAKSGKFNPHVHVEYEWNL
As to the kind of experiment: intermolecular PRE NMR; Cys159-MTSL myrArf1 (non-hydrolysable GTP analog), alone or in complex with wt PH, on nanodiscs; 100 μM Arf or Arf:PH and 100 μM isotopically labeled ZA. To be noted: both partners purified.

T2 sequence (P84077 whole entry E54A): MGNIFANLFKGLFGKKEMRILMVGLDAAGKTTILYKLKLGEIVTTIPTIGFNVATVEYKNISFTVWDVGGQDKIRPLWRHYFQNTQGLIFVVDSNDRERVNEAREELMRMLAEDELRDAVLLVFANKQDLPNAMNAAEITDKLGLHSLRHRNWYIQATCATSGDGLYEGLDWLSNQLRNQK
T1 sequence (P84077 whole entry): as the sequence (P84077 whole entry E54A) above, with A54E counted along it
T3 sequence (P84077 other isoform, or with tags, fused parts or gaps with the stated changes): as the sequence (P84077 whole entry E54A) above, with K38C, A54E, C159A counted along it
T4 sequence (P84077 other isoform, or with tags, fused parts or gaps with the stated changes): as the sequence (P84077 whole entry E54A) above, with A54E, K73C, C159A counted along it

B1: ΔN14 ASAP1 PH domain, [339-451]ASAP1 (domain or fragment, mouse, UniProt Q9QWY8 339-451, looked up)
chain: GSEKKGFLLKKSDGIRKVWQRRKCAVKNGILTISHATSNRQPAKLNLLTCQVKPNAEDKKSFDLISHNRTYHFQAEDEQDYIAWISVLTNSKEEALTMAFRGEQSTGENSLED
notes: mouse ASAP1, PH domain with shortened N-terminal extension, residues 339-451; tied by counting 14 residues from 325; also called ^ΔN14PH; source: E. coli BL21 Star (DE3) or BL21 (DE3), purified (HiTrap SP, SEC)
With B1, the “fold decrease in GAP activity compared with PH” value in test [1] turned out to be 100 fold. For the same molecule, the “fold weaker binding than wt PH” value in test [2] stood at 2 fold.

B2: wild-type ASAP1 PH domain, [325-451]ASAP1 (domain or fragment, mouse, UniProt Q9QWY8 325-451, looked up)
chain: GGYSMHQLQGNKEYGSEKKGFLLKKSDGIRKVWQRRKCAVKNGILTISHATSNRQPAKLNLLTCQVKPNAEDKKSFDLISHNRTYHFQAEDEQDYIAWISVLTNSKEEALTMAFRGEQSTGENSLED
notes: mouse ASAP1, PH domain with its N-terminal extension, residues 325-451; also called wt PH
For B2, in the test with myrArf1 Glu54Ala [3], the “fold decrease in GAP activity on Arf1 Glu54Ala compared with wild type (C50 of PZA, Fig. 7C)” value came out at 70 fold. Also, the “fold reduction of binding against wild type” value with myrArf1 Glu54Ala [4] was determined as 2 fold. The binding result in test [5] and in test [6] was “binds” throughout.

B3: Cys159-MTSL tagged myrArf1 bound to a non-hydrolysable GTP analog, on nanodiscs (natural protein)
chain: not shown
modifications: N-terminal myristoyl; MTSL nitroxide spin label on Cys159
notes: human Arf1, Uniprot P84077, native Cys159 spin-labelled; source: E. coli BL21 Star (DE3), co-expressed with yeast NMT, purified; spin-labelled on nanodiscs
B3 displayed a Kd in test [7] of 100 to 1000 µM.
